Test [1] addresses FITC-labelled phospho-RAF1 255-264 probe peptide (FITC-QRSTpSTPNVH) (human). Briefly: fluorescence polarisation; saturation: protein in serial dilution added to FITC-labelled probe peptide (master mix with 10 nM probe and 2 mM DTT), 50 mM KPO4 or NaPO4 pH 7.5; fitted to a quadratic equation. On the technique in general: Fluorescence polarisation rises when a labelled molecule tumbles more slowly, as on binding a larger partner.

The target in test [2] is FITC-labelled NCOR2 1307-1322 probe peptide (FITC-…) (human). The description is as above.
Test [3] deals with FITC-labelled Myc 320-328 probe peptide (FITC-…) (human). The description is as above.
The target of test [4] is importin subunit alpha‐3 (KPNA4) ARM domain (UniProt O00629). Briefly: FP competition against FITC-NCOR2 1307-1322 probe. To be noted: reference: unphosphorylated peptide.
For test [5], the target named is MDM2 SWIB, cleaved from the His‐GST tag, for affinity measurements (human). The experiment in a line: fluorescence polarisation; competition: unlabelled peptide in serial dilution displaces a FITC-labelled probe peptide from the bait domain (master mix with protein at four times the KD of the probe, 10 nM probe, 2 mM DTT); 50 mM KPO4 or NaPO4 pH 7.5; triplicates; probe for KEAP1 Kelch: FITC-NFE2L1 228-243, other probes in Dataset EV6.

For test [6], the target named is KPNA4 ARM (importin subunit alpha-3, armadillo repeat domain) (human) (UniProt O00629). The experiment in a line: fluorescence polarisation; competition: unlabelled peptide in serial dilution against KPNA4 ARM (master mix at four times the KD) with the probe FITC-Myc(320-328), probe of the major pocket; 50 mM KPO4 pH 7.5; Ki calculated from IC50.
Test [7] has the same target. Briefly: fluorescence polarisation; competition: unlabelled peptide in serial dilution against KPNA4 ARM (master mix at four times the KD) with the probe FITC-NCOR2(1307-1322), probe of the minor pocket; 50 mM KPO4 pH 7.5; Ki calculated from IC50.

Consider “14-3-3 protein sigma (SFN 14-3-3) (from UniProt P31947 1-248) (domain or fragment)”, for which the Kd in test [1] is 524000 nM. As to “KPNA4 ARM domain, MBP-tagged (from UniProt O00629 1-521) (domain or fragment)”, the Kd in test [2] was 228 nM; in test [3], 30 nM. For the substance “NCOR1 class III NLS peptide (from UniProt O75376) pS1242 peptide”, the “binding against the reference” value in test [4] (sites S1242) was “same”.

As for “NCOR1 class III NLS peptide (from UniProt O75376) pS1246 peptide”, the “binding against the reference” value in test [4] (sites S1246) is “weaker”.

With “NCOR1 class III NLS peptide (from UniProt O75376) pY1247 peptide”, in test [4] (sites Y1247), the “binding against the reference” value was “same”. Substance “NUMB_(615–630) peptide, synthetic (from UniProt P49757 615-630)” showed a Ki in test [5] of 3300 nM.

For SPRTN 400-416 peptide, the IC50 in test [6] was 260 nM. For ZNF532 1139-1154 peptide, the IC50 in test [7] was 1300 nM.

As a reminder, the Kd is the equilibrium constant for the complex coming apart. Low values mean higher affinity, high ones lower affinity. By Ki is commonly meant the equilibrium dissociation constant of an inhibitor or competing ligand from its target. Low values mean higher affinity, high ones lower affinity. As a reminder, the IC50 is the concentration needed to halve the response being measured.

Source of the values: article PMC8769072, “Proteome‐scale mapping of binding sites in the unstructured regions of the human proteome” (Molecular Systems Biology, 2022).
